Assay [1] addresses T1, hCEACAM5, human CEACAM5 ECD (35-685) (human, UniProt P06731 35-685).
T1 construct: produced in HEK293; also called human CEACAM5 protein; human CEACAM5 extracellular domain
T1 sequence: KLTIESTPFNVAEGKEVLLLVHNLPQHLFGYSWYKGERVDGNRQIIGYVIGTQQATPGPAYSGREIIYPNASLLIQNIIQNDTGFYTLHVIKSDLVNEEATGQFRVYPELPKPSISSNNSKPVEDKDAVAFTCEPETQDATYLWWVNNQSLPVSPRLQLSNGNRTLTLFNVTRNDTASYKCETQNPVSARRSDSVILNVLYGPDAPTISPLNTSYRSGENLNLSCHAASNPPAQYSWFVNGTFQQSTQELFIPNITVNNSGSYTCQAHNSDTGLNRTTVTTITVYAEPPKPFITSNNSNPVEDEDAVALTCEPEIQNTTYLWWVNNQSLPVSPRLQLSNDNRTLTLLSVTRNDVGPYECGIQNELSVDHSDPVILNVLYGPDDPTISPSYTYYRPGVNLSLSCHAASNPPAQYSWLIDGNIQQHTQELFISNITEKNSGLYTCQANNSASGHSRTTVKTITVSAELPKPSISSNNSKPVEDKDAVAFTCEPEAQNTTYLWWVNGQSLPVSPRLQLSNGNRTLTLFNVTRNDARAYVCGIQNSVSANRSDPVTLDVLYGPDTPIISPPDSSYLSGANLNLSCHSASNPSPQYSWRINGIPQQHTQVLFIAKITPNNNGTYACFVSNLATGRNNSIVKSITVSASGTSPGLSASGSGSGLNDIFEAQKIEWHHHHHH
In words: ELISA, coated CEACAM5. The protocol:
(§1) All CEACAM5-specific mAbs were assessed for their ability to bind human and primate CEACAM5 protein by ELISA. Plates were coated with human or primate CEACAM5 protein, anti-hCEACAM5 mAbs were added to the plate and detected with rabbit anti-mouse IgG conjugated with horseradish peroxidase (Sigma; # A9044). The antibody binding was visualized by adding TMB-H2O2 buffer and read at a wavelength of 450 nm.
A general note: In an ELISA, binding on a coated surface is turned into a signal by an enzyme label.

The target of assay [2] is T2, cCEACAM5, M. fascicularis CEACAM5 ECD (35-688) (Macaca fascicularis).
T2 construct: ECD followed by a 24 amino acid extension containing a His-Tag; also called cynomolgus CEACAM5; monkey CEACAM5
T2 chain: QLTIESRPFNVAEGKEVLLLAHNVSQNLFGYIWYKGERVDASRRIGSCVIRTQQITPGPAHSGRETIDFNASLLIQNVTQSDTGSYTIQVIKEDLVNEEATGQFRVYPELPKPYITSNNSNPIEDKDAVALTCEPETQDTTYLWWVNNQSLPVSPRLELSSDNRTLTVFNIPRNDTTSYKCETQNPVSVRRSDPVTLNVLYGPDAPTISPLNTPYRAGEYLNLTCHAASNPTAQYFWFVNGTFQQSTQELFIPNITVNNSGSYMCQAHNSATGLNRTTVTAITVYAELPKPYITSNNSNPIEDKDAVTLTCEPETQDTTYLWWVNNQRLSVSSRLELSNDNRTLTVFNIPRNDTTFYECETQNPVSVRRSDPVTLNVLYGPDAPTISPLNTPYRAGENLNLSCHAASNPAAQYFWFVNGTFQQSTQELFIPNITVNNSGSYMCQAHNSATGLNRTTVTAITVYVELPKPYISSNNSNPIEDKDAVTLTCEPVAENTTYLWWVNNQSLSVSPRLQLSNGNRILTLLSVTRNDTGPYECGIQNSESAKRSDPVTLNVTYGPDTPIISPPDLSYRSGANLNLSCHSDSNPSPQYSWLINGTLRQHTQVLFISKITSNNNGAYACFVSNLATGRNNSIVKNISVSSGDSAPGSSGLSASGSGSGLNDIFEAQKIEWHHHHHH
The experiment in a line: ELISA, coated CEACAM5. The protocol:
as §1

The target in assay [3] is T3, cCEACAM8, M. fascicularis CEACAM8 ECD (35-332) (Macaca fascicularis).
T3 construct: With 24 amino acid extension containing a His-Tag; also called cynomolgus CEACAM8
T3 chain: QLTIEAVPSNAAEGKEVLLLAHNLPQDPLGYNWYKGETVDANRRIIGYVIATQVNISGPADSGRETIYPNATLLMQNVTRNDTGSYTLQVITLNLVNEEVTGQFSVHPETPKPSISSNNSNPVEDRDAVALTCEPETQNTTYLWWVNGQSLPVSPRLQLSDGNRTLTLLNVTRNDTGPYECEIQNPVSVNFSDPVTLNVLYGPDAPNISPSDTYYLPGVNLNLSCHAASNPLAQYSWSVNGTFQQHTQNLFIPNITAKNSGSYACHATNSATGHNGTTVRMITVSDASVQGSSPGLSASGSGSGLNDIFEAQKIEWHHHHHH
The experiment in a line: ELISA.

B1: antibody MAb1 (antibody, IgG1, V domains shown)
VH: EVMLVESGGGLVKPGGSLKLSCAASGFTFSSYAMSWVRQTPEKRLEWVATISSGGSYIYYLDSVKGRFTISRDNAKNTLYLQMSSLRSEDTAMYYCARPAYYGNPAMDYWGQGTSVTVSS
VL: DILMTQSQKFMSTSVGDRVSVTCKASQNVGTNVAWYQQKPGQSPKPLIYSASYRYSGVPDRFTGSGSGTDFTLTISNVQSEDLAEYFCQQYNSYPLYTFGGGTKLEIK
One may read the EC50 as the midpoint of the concentration-response curve. Low values mean higher potency in that assay, high ones lower potency in that assay. With B1, a half-maximal effect in assay [1] (EC50) was put at 530 pM. Further, in assay [2], the EC50 amounted to 1180 pM and the “Ratio c/h (EC50 on cCEACAM5 against EC50 on hCEACAM5)” value (“Ratio c/h” for short) was determined as 2.2.

B2: antibody MAb3 (antibody, IgG1, V domains shown)
VH: EVKLVESGGGLVKPGGSLTLPCAASGFTFSRYAMSWVRQTPEKRLEWVASISSGGDTYYPDSVKGRFTVSRDNARNILFLQMSSLRSEDTGMYYCARVNYYDSSFLDWWGQGTTLTVSS
VL: DIVMTQSQRFMSTLEGDRVSVTCKASQNVGTNVAWYQQKPGQSPKALIYSASYRYSGVPDRFTGSGSGTDFTLTISNVQSEDLAEYFCQQYNNYPLYTFGGGTKLEIK
notes: Murine monoclonal from hybridoma, IgG1, kappa
As for B2, a half-maximal effect in assay [1] (EC50) was put at 360 pM. In assay [2], the EC50 is 3720 pM and the “Ratio c/h” value came to 10.

B3: huMAb2-3 (antibody, human IgG1, kappa, V domains shown)
VH: EVQLQESGPGLVKPGGSLSLSCAASGFVFSSYDMSWVRQTPERGLEWVAYISSGGGITYAPSTVKGRFTVSRDNAKNTLYLQMNSLTSEDTAVYYCAAHYFGSSGPFAYWGQGTLVTVSS
VL: DIQMTQSPASLSASVGDRVTITCRASENIFSYLAWYQQKPGKSPKLLVYNTRTLAEGVPSRFSGSGSGTDFSLTISSLQPEDFATYYCQHHYGTPFTFGSGTKLEIKR
notes: Humanized MAb2, human IgG1 / Ckappa; also called MAb2_VL1cVH1a-IgG1
Take B3: the “percentage of binding compared to full binding with cynomolgus CEACAM5” value (“percentage of binding” for short) in assay [3] amounted to 1.2%.

B4: huMAb2-1 (antibody, V domains shown)
VH: EVQLQESGPGLVKPGGSLSLSCAASGFVFSSYDMSWVRQTPERRLEWVAYISSGGGITYFPSTVKGRFTVSRDNAKNTLYLQMNSLTSEDTAIYYCAAHYFGSSGPFAYWGQGTLVTVSA
VL: DIQMTQSPASLSASVGDTVTITCRASENIFSYLAWYQQKPGKSPKLLVYNTKTLAEGVPSRFSGSGSGTQFSLTISSLQPEDFGSYYCQHHYGTPFTFGSGTKLEIK
notes: Humanized MAb2 (VL1 + VH1) fused to human IgG1 and human Ckappa constant domains; also called MAb2_VL1VH1-IgG1; MAb2VL1VH1-IgG1
On to B4, for which the “percentage of binding” value in assay [3] was 3.6%.

B5: chMAb2 (antibody, human IgG1, kappa, V domains shown)
VH: EVQLQESGGVLVKPGGSLKLSCAASGFVFSSYDMSWVRQTPEKRLEWVAYISSGGGITYFPDTVQGRFTVSRDNAKNTLYLQMNSLKSEDTAIYYCAAHYFGSSGPFAYWGQGTLVTVSA
VL: DIQMTQSPASLSASVGETVTITCRASENIFSYLAWYQQKQGKSPQLLVYNTKTLAEGVPSRFSGSGSGTQFSLKINSLQPEDFGSYYCQHHYGTPFTFGSGTKLEIKR
notes: Chimeric, human IgG1, Ck isotype; also called MAb2-IgG1; chimeric MAb2
For B5, the “percentage of binding” value in assay [3] was 1.2%.

B6: huMAb2-2 (antibody, V domains shown)
VH: EVQLQESGPGLVKPGGSLSLSCAASGFVFSSYDMSWVRQTPERGLEWVAYISSGGGITYAPSTVKGRFTVSRDNAKNTLYLQMNSLTSEDTAVYYCAAHYFGSSGPFAYWGQGTLVTVSS
VL: DIQMTQSPASLSASVGDRVTITCRASENIFSYLAWYQQKPGKSPKLLVYNTKTLAEGVPSRFSGSGSGTDFSLTISSLQPEDFATYYCQHHYGTPFTFGSGTKLEIK
notes: Humanized MAb2 (VL1a + VH1a) fused to human IgG1 and human Ckappa constant domains; also called MAb2_VL1aVH1a-IgG1; MA2_VL1aVH1a-IgG1
With B6, the “percentage of binding” value in assay [3] is 0.9%.

B7: huMAb2-4 (antibody, human IgG1, kappa, V domains shown)
VH: EVQLQESGPGLVKPGGSLSLSCAASGFVFSSYDMSWVRQTPERRLEWVAYISSGGGITYFPSTVKGRFTVSRDNAKNTLYLQMNSLTSEDTAIYYCAAHYFGSSGPFAYWGQGTLVTVSA
VL: DIQMTQSPASLSASVGDTVTITCRASENIFSYLAWYQQKPGKSPKLLVYNTRTLAEGVPSRFSGSGSGTQFSLTISSLQPEDFGSYYCQHHYGTPFTFGSGTKLEIKR
notes: Humanized MAb2, human IgG1 / Ckappa; also called MAb2_VL1d VH1-IgG1; MAb2_VL1dVH1-IgG1
Take B7: the “percentage of binding” value in assay [3] was 3.2%.

B8: antibody MAb4 (antibody, IgG1, V domains shown)
VH: EVQLVESGGGLVKPGGSLKLSCAASGFTFSSYDMSWVRQTPEKRLEWVAFISSYGGRTYYADTVKGRFTISRDNAKNTLYLQMSSLKSEDTAMFYCAAHYFGTSGPFAYWGQGTLVTVSA
VL: DIQMTQSPASLSASVGETVTITCRASENIYSYFAWYQQKQGKSPQLLVYNAKILAEGVPSRFSGSGSGTQFSLKINSLQPEDFGTYYCQHHYGIPFTFGSGTKLELK
notes: as for B2
In the case of B8, the EC50 came to 80 pM in assay [1] and 50 pM in assay [2]. Moreover, the “Ratio c/h” value in assay [2] was found to be 0.6.

B9: antibody MAb5 (antibody, IgG1, V domains shown)
VH: ELQLVESGGVLVKPGGSLKLSCAASGFAFSSYDMSWVRQTPEKRLEWVTYINSGGGITYYPDTVKGRFTISRDNARNTLYLQMSSLKSEDTAIYYCTAHYFGSSGPFAYWGQGTLVTVSA
VL: DIQMTQSPASLSASVGETVTITCRASENIYSYLAWYQQKQGKSPQLLVYNAKTLTEGVPSRFSGSGSGTQFSLKINSLQPEDFGSYYCQHHYGTPFTFGSGTKLEIK
notes: as for B2
Turning to B9, the EC50 in assay [1] came out at 400 pM. In assay [2], a half-maximal effect (EC50) was put at 450 pM and the “Ratio c/h” value was 1.1.
